B1: consensus SRE probe (dsDNA)
DNA 1: ATGCATTGGGTACATCTTGTTCACATA
DNA 2: TATGTGAACAAGATGTACCCAATGCAT
B2: IGF-1 ARE1 probe (dsDNA)
DNA 1: GACTTGACCATATCTTATTCCTCTTTG
DNA 2: CAAAGAGGAATAAGATATGGTCAAGTC
B3: IGF-1 ARE2 probe (dsDNA)
DNA 1: TTGTAGTTGGGCACATAGTAGAGCTCA
DNA 2: TGAGCTCTACTATGTGCCCAACTACAA

Experiments:
[1] = tested on: Androgen receptor (full length) (Homo sapiens); test: cell_activity; conditions: HepG2 luciferase reporter, testosterone
[2] = tested on: Glucocorticoid receptor (Rattus norvegicus); test: cell_activity; conditions: HepG2 luciferase reporter, dexamethasone
[3] = molecular target: T1, Androgen receptor DNA-binding domain (Homo sapiens, UniProt P10275 P10275:560-632); test: EMSA; strong band, greatly diminished by excess unlabeled probe; conditions: tags: GST fusion (pGEX 4T-1 hAR2, E. coli BL21); label: 32P
Excerpt: (§1) In order to more directly test whether the AR bound to sequences with ARE1 and ARE2, binding of a GST-tagged version of recombinant AR DNA-binding domain to radiolabeled probes was examined using electrophoretic mobility shift assays.

[4] = molecular target: T1, Androgen receptor DNA-binding domain; test: EMSA; band weaker than SRE; diminished by excess cold SRE; conditions: tags: GST fusion (pGEX 4T-1 hAR2, E. coli BL21); label: 32P
Excerpt: as §1

[5] = molecular target: T1, Androgen receptor DNA-binding domain; test: EMSA; band consistently weaker than SRE; greatly diminished by excess cold SRE; conditions: tags: GST fusion (pGEX 4T-1 hAR2, E. coli BL21); label: 32P
Excerpt: as §1

T1 sequence (P10275 560-632, one chain of several): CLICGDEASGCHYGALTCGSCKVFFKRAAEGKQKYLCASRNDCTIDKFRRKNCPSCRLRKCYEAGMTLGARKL

Molecule	activity (fold induction) [1]	activity (fold induction) [2]	other results
pGL3-13a IGF-1 promoter insert -1370 to -1250 (ARE2)	> 20	5	–
pGL3-22 IGF-1 promoter insert -1508 to -1402 (ARE1)	> 5	< 2	–
pGL3-32 IGF-1 promoter insert -1429 to -1250 (ARE1 and ARE2)	–	5	activity (fold induction) ([1]; 25-fold plateau in FIG. 15): 30
B1	–	–	binding result [3]: binds
B2	–	–	binding result [4]: binds
B3	–	–	binding result [5]: binds
